# Results as given in patent US20070020258A1 (published 2007).
# Tests used:
# [1] = target: T1, human IgE (ND and PS allotypes) (human, UniProt P01854-1 1-428, tracer iodinated with 125I (chloramine T)); assay: 125I-IgE equilibrium binding, Scatchard
# T1 construct: IgE used for the Scatchard Kd; also called 125I IgE; unlabelled IgE
# Experimental: e. Scatchard analysis was performed utilizing a Fortran program (scanplot) based on the Ligand program written by P. Munson at NIH. Scatplot uses a mass action equation fitting bound as a function of total using the Rodbard type regression analysis.
# [2] = target: T2, human IgE purified from U266B1 cells (human, UniProt P01854-1 1-428); assay: IgE/FcεRI inhibition ELISA
# T2 construct: domain: Fcε4; Whole IgE; its X residues are spacers that keep Kabat numbering and are not part of the protein; also called U266 IgE; U266 IgE standard
# Experimental: A 96-well assay plate (Manufn Nunc.) was coated with 0.05 ml of the FcεRI alpha chain IgG1 chimeric receptor in 1 μg/ml coating buffer ([…] carbonate/bicarbonate, pH 9.6). Assay was done for 12 hours at 4-8° C. The wells were aspirated and 250 μl blocking buffer (PBS-1% BSA pH 7.2) was added and incubated for one hour at 4° C. […] The FcεRI-coated wells were washed three times with PBS-0.05% Tween20, and then 50 μl from the sample wells were transferred and incubated with agitation for 30 minutes at 25° C. 50 μl/well of streptavidin-HRP diluted 1:5000 in assay buffer was incubated for 15 minutes with agitation and then the plate was washed as before. 50 μl/well of Microwell peroxidase substrate (Kirkgaard & Parry Laboratories) was added and color was developed for 30 minutes.
# T1 sequence (P01854 other isoform, or with tags, fused parts or gaps): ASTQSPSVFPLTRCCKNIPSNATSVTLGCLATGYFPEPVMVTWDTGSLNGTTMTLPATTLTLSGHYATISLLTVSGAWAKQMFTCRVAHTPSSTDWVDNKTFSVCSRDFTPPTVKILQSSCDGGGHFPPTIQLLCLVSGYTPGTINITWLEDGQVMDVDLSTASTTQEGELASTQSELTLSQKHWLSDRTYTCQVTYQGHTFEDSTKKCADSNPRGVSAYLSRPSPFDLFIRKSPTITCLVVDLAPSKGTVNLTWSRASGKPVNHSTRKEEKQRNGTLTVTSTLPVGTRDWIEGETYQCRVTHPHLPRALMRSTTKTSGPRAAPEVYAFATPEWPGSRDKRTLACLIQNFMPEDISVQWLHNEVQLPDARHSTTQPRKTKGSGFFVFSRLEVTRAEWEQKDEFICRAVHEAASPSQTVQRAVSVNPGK
# T2 sequence (P01854 other isoform, or with tags, fused parts or gaps): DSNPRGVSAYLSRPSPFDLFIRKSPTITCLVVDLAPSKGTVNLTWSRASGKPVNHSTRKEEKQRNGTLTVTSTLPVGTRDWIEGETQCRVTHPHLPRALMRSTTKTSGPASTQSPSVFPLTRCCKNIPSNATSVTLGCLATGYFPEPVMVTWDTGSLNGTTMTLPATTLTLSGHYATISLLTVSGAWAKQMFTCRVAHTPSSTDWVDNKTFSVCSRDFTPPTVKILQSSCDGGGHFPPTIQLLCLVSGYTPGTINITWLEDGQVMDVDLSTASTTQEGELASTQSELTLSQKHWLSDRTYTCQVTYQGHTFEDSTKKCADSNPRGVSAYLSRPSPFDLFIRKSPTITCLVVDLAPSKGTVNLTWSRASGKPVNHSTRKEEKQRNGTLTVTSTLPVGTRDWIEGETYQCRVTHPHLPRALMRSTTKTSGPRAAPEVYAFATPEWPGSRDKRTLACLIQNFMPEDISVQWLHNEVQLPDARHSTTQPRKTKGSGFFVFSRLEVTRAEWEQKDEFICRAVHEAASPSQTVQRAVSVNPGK
Kd [1] [nM],ratio Var. X / IgL1H1 [2],ratio Var. X / MaE11 [2],Binder
70,–,–,"MAE15 (antibody, V domains shown, murine IgG1) VH: DVQHQESEPDLVKPSQSLSLTCTVTGYSITSGYNRHWIRQFPGNKLEWMGYIHYSGSTNYNPSLKRRISITRDTSKNQFFLQLNSVTTEDTATYYCARGSIYYYGSRYRYFDVWGAGTTVTVSS VL: DIQLTQSPASLAVSLGQRATISCKASQSVDYDGDSYMNWYQQKPGQPPKLLIYAASNLESGIPARFSGSGSGTDFTLNIHPVEEEDAATYYCQQSNEDPFTFGAGT"
50,–,–,"MAE13 (antibody, V domains shown, murine IgG1) VH: DVQLQESGPGLVKPSQSLSLTCTVTGYTITSDNAWNWIRQFPGNKLEWMGYINHSGTTSYNPSLKSRISITRDTSKNQFFLQLNSVTTEDTATYYCAWVVAYAMDYWGQGTSVTVSS VL: DIVMTQSQKFMSTSVGDRVSVTCKASQNVSSNVAWYQQKPGQSPKALIYSASYRYSGVPDRFTGSGSGTDFTLTISNVQSEDLAEYFCQQYYTYPLYTFGGGTKLEIKR"
30,0.06,1,"MAE11 (antibody, V domains shown, murine IgG1) VH: DVQLQESGPGLVKPSQSLSLACSVTGYSITSGYSWNWIRQFPGNKLEWMGSITYDGSSNYNPSLKNRISVTRDTSQNQFFLKLNSATAEDTATYYCARGSHYFGHWHFAVWGAGTTVTVSS VL: DIVLTQSPASLAVSLGQRATISCKASQSVDYDGDSYMNWYQQKPGQPPILLIYAASYLGSEIPARFSGSGSGTDFTLNIHPVEEEDAATFYCQQSHEDPYTFGAGTKLEIK"
